What is called EC50 is the midpoint of the concentration-response curve. Read a high EC50 as lower potency in that assay.

Experimental findings from patent US20180264103A1 (ELITEIMMUNE, published 2018) are described below.

Assay [1] concerns the target RSV-F (Strain RSS-2) (respiratory syncytial virus (Strain RSS-2)) (UniProt P11209). Put plainly: ELISA, antigen coated on plate, same conditions as R66. (In general: ELISA stands for enzyme-linked immunosorbent assay.)
The target of assay [2] is RSV-F (Strain A2) (respiratory syncytial virus (Strain A2)) (UniProt P03420). The description is as above.
The target in another assay is T1, RSV-F (Strain RSS-2) (respiratory syncytial virus (Strain …, UniProt P11209 26-529)).
T1 construct: Bought protein (Sino Biological Inc.), coated on the ELISA plate; also called glycoprotein F; antigen F of RSV
Nature of the assay: ELISA, antigen coated on plate, anti-human IgG-HRP detection.

A further assay deals with T2, RSV-F (Strain A2) (respiratory syncytial virus (Strain A2), UniProt P03420 26-529).
T2 construct: Bought protein (Sino Biological Inc.), coated on the ELISA plate; also called glycoprotein F; antigen F of RSV
The assay is described as above.

RSV-F (Strain RSS-2) (respiratory syncytial virus (Strain RSS-2)), sequence (P11209 26-529): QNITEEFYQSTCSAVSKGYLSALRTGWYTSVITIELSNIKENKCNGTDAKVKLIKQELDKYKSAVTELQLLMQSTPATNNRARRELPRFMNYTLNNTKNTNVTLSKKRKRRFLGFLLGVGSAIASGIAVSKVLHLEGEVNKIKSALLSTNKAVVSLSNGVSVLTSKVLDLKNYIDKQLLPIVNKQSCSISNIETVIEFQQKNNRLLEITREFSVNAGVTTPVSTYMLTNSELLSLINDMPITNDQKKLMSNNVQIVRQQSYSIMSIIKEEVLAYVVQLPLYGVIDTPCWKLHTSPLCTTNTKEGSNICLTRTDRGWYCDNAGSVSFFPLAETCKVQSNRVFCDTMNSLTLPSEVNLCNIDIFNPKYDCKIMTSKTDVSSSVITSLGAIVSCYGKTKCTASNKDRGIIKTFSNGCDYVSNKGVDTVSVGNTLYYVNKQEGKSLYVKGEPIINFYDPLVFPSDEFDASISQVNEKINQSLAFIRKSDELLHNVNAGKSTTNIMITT
T1 sequence (P11209 26-529): as above
RSV-F (Strain A2) (respiratory syncytial virus (Strain A2)), sequence (P03420 26-529): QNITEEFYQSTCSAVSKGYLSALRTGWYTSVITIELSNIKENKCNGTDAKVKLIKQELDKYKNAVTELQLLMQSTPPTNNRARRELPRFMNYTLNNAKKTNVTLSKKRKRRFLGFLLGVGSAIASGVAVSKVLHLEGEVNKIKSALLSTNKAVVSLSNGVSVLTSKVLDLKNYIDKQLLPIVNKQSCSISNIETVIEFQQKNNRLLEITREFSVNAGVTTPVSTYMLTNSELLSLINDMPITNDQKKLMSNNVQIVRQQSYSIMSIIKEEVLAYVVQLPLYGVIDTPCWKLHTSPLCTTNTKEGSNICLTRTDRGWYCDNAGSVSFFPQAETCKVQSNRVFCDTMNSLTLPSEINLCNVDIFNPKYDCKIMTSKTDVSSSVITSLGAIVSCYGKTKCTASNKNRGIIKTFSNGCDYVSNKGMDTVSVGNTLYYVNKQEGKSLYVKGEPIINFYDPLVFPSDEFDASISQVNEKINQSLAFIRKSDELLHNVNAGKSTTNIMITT
T2 sequence (P03420 26-529): as above

As to Palivizumab Synagis (antibody), the 50% effective concentration (EC50) in assay [1] worked out at 1.88 ng/mL; in assay [2], 4.88 ng/mL.

B1: fully human anti-RSV monoclonal antibody R66 (antibody, V domains shown)
VH: EVQLVESGGGLVQPGRSLRLSCTASGFTFADYSMTWVRQAPGKGLEWVGLIKRNAYGGTTEYAASVRGRFTISRDDSRSIAYLQMHSLKSEDTAVYFCLRGYSGYDWEGLDAFEVWGQGTMVTVSS
VL: DIQMTQSPSAMSASVGDRVTITCRASQGSSTYLAWFQQKPGKVPKRLIYAVSSLQSGVPSRFSGSGSGTEFTLTISSLQPEDSATYYCLQHNSFPLTFGQGTKVEIK
notes: expressed in 293T cells, Protein A purified; heavy chain about 50 kDa, light chain about 22 kDa; also called R66 antibody
With B1, the figures for the concentration for a half-maximal effect (EC50) with RSV-F (Strain RSS-2) and in the assay with RSV-F (Strain A2) were 1.46 ng/mL and 1.79 ng/mL, respectively.
